# Laboratory results taken from patent US20060253917A1 (published 2006).
# T1: OsMADS45 aa 50-198 (Oryza sativa, UniProt P0C5B0 50-198)
# T1 construct: bait, Gal4 DBD fusion; also called PN20231; O. sativa MADS box protein MADS45
# T1 sequence: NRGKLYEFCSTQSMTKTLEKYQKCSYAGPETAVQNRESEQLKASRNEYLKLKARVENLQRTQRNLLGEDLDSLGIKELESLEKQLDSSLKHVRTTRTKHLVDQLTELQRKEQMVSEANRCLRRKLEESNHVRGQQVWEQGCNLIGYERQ
# T2: OsHOS59 aa 1-100 (Oryza sativa, UniProt Q94LW4 113-212)
# T2 construct: bait, Gal4 DBD fusion; also called PN20559; O. sativa Homeobox Protein HOS59, Fragment
# T2 sequence: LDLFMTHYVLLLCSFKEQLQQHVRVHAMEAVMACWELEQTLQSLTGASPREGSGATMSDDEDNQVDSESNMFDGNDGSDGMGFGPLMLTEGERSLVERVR
# T3: OsCS aa 316-583 (Oryza sativa, UniProt A2Y0X2 316-583)
# T3 construct: bait, Gal4 DBD fusion; also called PN19707
# T3 sequence: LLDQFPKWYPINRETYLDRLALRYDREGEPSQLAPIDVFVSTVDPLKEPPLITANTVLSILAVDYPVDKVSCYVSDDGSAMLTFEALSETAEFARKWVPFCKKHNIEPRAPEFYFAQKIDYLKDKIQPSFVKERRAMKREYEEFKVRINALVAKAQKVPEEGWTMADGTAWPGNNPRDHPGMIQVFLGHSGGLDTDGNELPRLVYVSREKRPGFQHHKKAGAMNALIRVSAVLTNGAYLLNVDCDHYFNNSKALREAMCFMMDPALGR
# Target: T1, OsMADS45 aa 50-198
# Assay: Y2H; output trait library
# Procedure, shortened: (§1)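 A rice prey library, either the input trait or the output trait library, was screened with a bait clone encoding a defined amino-acid fragment of a rice protein. Screening used an automated, high-throughput yeast two-hybrid assay provided by Myriad Genetics Inc. (Salt Lake City, Utah). Retrieved prey clones had their encoding sequences compared by BLAST against databases so the interacting proteins could be identified.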
row,binding result,Binder
1,binds,"OsMADS18 aa 82-154 (other, prey, AD fusion; also called PN20912) EPNTEDQENWGDEYGILKSKLDALQKSQRQLLGEQLDTLTTKELQQLEHQLEYSLKHIRSKKNQLLFESISEL"
2,binds,"OsMADS15 aa 92-237 (other, prey, AD fusion; also called PN20842; O. sativa MADS box protein MADS15) CHEYRKLKAKIETIQKCHKHLMGEDHESLNLKELQQLEQQLESSLKHIISRKSHLMLESISELQKKERSLQEENKALQKELVERQKNVRGQQQVGQWDQTQVQAQAQAQPQAQTSSSSSSMLRDQQALLPPQNICYPPVMMGERND"
3,binds,"OsMADS13 aa 75-263 (other, prey, AD fusion; also called PN20668; O. sativa MADS box protein MADS13) ACGSTSGAPLIEVNAQQYYQQESAKLRHQIQMLQNTNKHLVGDNVSNLSLKELKQLESRLEKGIAKIRARKNELLASEINYMAKREIELQNDNMDLRTKIAEEEQQLQQVTVARSAAMELQAAAAAQQQQQNPFAVAAAQLDMKCFFPLNLFEAAAQVQAVAAQRQQIIPTELNLGYHHHLAIPGATAA"
4,binds,"OsFDRMADS8 aa 63-186 (other, prey, AD fusion; also called PN20698) LQKTIDRYKAYTKDHVNNKTIQQDIQQVKDDTLGLAKKLEALDESRRKILGENLEGCSIEELRGLEMKLEKSLHNIRLKKTELLERQIAKLKEKERTLLKDNENLRGKHRNLEAAALVANHMTT"
5,binds,"OsMADS18 aa 57-224 (other, prey, AD fusion; also called PN20912; O. sativa MADS box protein MADS18) FSSHSSMEGILERYQRYSFDERAVLEPNTEDQENWGDEYGILKSKLDALQKSQRQLLGEQLDTLTTKELQQLEHQLEYSLKHIRSKKNQLLFESISELQKKEKSLKNQNNVLQKLMETEKEKNNAIINTNREEQNGATPSTSSPTPVTAPDPIPTTNNSQSQPRGSGE"
6,binds,"OsFDRMADS6 aa 115-246 (other, prey, AD fusion; also called PN19766; O. sativa MADS-box protein FDRMADS6) EDLESLNLKELQQLEQQLENSLKHIRSRKSQLMLESINELQRKEKSLQEENKVLQKELVEKQKVQKQQVQWDQTQPQTSSSSSSFMMREALPTTNISNYPAAAGERIEDVAAGQPQHVRIGLPPWMLSHING"
7,binds,"OsMADS5 aa 113-225 (other, prey, AD fusion; also called PN20770; O. sativa MADS box protein MADS5) LLGEDLVPLSLKELEQLENQIEISLMNIRSSKNQQLLDQVFELKRKEQQLQDANKDLKRKIQETSGENMLHISCQDVGPSGHASEANQEFLHHAICDPSLHIGYQAYMDHLNQ"
8,binds,"OsMADS3 aa 48-177 (other, prey, AD fusion; also called PN20700; O. sativa MADS box protein MADS3) FSSRGRLYEYANNSVKSTVERYKKANSDTSNSGTVAEVNAQHYQQESSKLRQQISSLQNANSRTIVGDSINTMSLRDLKQVENRLEKGIAKIRARKNELLYAEVEYMQKREVELQNDNMYLRSKVVENER"
9,binds,"OsFDRMADS8 aa 104-233 (other, prey, AD fusion; also called PN20698; O. sativa MADS-box protein FDRMADS8) LDESRRKILGENLEGCSIEELRGLEMKLEKSLHNIRLKKTELLERQIAKLKEKERTLLKDNENLRGKHRNLEAAALVANHMTTTTAPAAWPRDVPMTSSTAGAADAMDVETDLYIGLPGTERSSNRSETG"

# Target: T2, OsHOS59 aa 1-100
# Assay: Y2H; output trait library
# Procedure, shortened: as §1
row,binding result,Binder
1,binds,"OsPN23829 aa 2-226 (other, prey, AD fusion; also called Novel Protein PN23829 Putative S-Adenosyl-L-Homocysteine Hydrolase) ALSVEKTSSGREYKVKDLSQADFGRLEIELAEVEMPGLMACRAEFGPSQPFKGARISGSLHMTIQTAVLIETLTALGAEVRWCSCNIFSTQDHAAAAIARDSAAVFAWKGETLEEYWWCTERCLDWGVGGGPDLIVDDGGDATLLIHEGVKAEEEFEKSGKVPDPESTDNAEFKIVLTIIRDGLKSDPSKYRKMKERLVGVSEETTTGVKRLYQMQETGALLFPA"
2,binds,"OsAAK00972 aa 236-350 (other, prey, AD fusion; also called PN23253; O. sativa Putative Homeodomain Protein OsAAK00972) AEGGSKGEGVSSNPQESTANAAPEISAAEKQELQNKMAKLMAMLDEVDRKYKHYYHQMQIVVSSFDMVAGSGAAKPYTAVALQTISKHFRCLKDAINDQINVIRKKLGEEESSSG"
3,binds,"OsAAG13633 aa 799-951 (other, prey, AD fusion; also called PN25701; O. sativa Putative Myosin) IRSLKFEYDNLKILMSTNDSEKHNLASQVLKLRRALESREDVKQNGVKSDEDNHHATSKRIKHDDGTTGSCNVLPSTNRHNANGDCNGHDRRDAAHDQSVKELEILKERNTALEEELKELHGRYSEISLKFAEVEGERQQLVMTVRALKNSLR"
4,binds,"OsPN23830 aa 1-169 (other, prey, AD fusion) MGFLEDFQASVEALPAMLQRNYSLMRELDKSLQGVQTGNEQRCQQEIEDIKHGLESGSITYDPAKLKFSDEAIEEQKHCVRIADEKVALASQTYDLVDAHIQQLDQFMRKLEELRQEKEAATTAAAAAAAAAASVATGTPVAATVTASAGTSTADNTPKGGRSSERGRG"
5,binds,"OsBAB07943 aa 525-767 (other, prey, AD fusion; also called PN23832; O. sativa Putative Eukaryotic Translation Initiation Factor 3 Large Subunit) LADSLNKARSLIHPPVKKPSKLGENLTSLAAVVENEHKRLLARKSIIEKRKEDLERQILEKEKEEEKKRLSVLKKSAEDERIRLLNDVKLREQERIRRQLVEKEKIEAEELLQKQIKEIAKRGGKKPVLQGEVTKEAVMELAMNEQFKERQEMEKKLQKTGKQMDYLERAKRQEEAPLIEQAFQKRLEVEKILHEQEQLREIELSKQHHAGDLQEKNRLSRMLEHKNIFQERIVQRREAEFSR"
6,binds,"OsPN24092 aa 797-948 (other, prey, AD fusion; also called Novel Protein PN24092, Similar to O. sativa Putative Myosin) SIKDQVQTYLEEINTLKSSKNEKEEMIERLQSEIRSLKFEYDNLKILMSTNDSEKHNLASQVLKLRRALESREDVKQNGVKSDEDNHHATSKRIKHDDGTTGSRNVLPSTNRHNANGDCNGHDRRDAAHDQSVKELEILKERNTALEEELKE"
7,binds,"OsPN23830 aa 4-207 (other, prey, AD fusion; also called Novel Protein PN23830, Similar to A. thaliana Putative PHD-Finger Protein) LEDFQASVEALPAMLQRNYSLMRELDKSLQGVQTGNEQRCQQEIEDIKHGLESGSITYDPAKLKFSDEAIEEQKHCVRIADEKVALASQTYDLVDAHIQQLDQFMRKLEELRQEKEAATTAAAAAAAAAASVATGTPVAATVTASAGTSTADNTPKGGRSSERGRGGRKKTAKVPTEQPAPAIDLELPVDPNEPTYCLCNQVSY"
8,binds,"OsPN23388 aa 229-331 (other, prey, AD fusion; also called Novel Protein PN23388) LKTAKEKGLQRLVHLSSDLARQVATILENAQTFQENRKIGDVPSVNSNSSGVPSTQGEIDEIHQERQKFVEVAKKNVRDRRARRMQSCEVPIHPITPVKLMES"

# Target: T3, OsCS aa 316-583
# Assay: Y2H; output trait library
# Procedure, shortened: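 The values record whether an interaction was detected. In an automated, high-throughput yeast two-hybrid screen from Myriad Genetics Inc., rice protein fragments defined by amino-acid range were used as bait against rice prey clone libraries. Full-length genes were identified by BLAST comparison of the sequences encoding the interacting prey fragments against databases.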
row,binding result,Binder
1,binds,"OsPN29115 aa 1-188 (other, prey, AD fusion; also called Novel Protein PN29115, Fragment, Similar to A. thaliana 6,7-Dimethyl-8-Ribityllumazine Synthase Precursor) VSFPYSPRPAALAAGARASRVSPVVVAAGGGHQRLMGSLTNTQGLRFGVVVARFNEIVTNLLLQGALETFERYSVKKENITVLSVPGSFEIPVAAQKLGKSGKFDANFVHWRCAFRGDTTHYGAVANSAASGVLSAGLSAEIPCIFGVLTCDDMDQALNRAGGKAGNKGAEAALTAIEMASLFQHHLA"
2,binds,"OsPN29084 aa 1-253 (other, prey, AD fusion; also called Novel Protein PN29084, Fragment, Similar to Soybean Calcium-Dependent Protein Kinase) ESGIFRQILRGKLDLESDPWPSISDSAKDLVRNMLIRDPTKRFTAHEVLCHPWIVDDAVAPDKPIDSAVLSRLKHFSAMNKLKKMALRVIAESLSEEEIGGLKELFKMIDTDNSGTITYDELKNGLKRVGSDLMEPEIQALMDAADIDNSGTIDYGEFLAATLHMNKLEREENLVSAFTFFDKDGSGFITIDELSQACEQFGLSDVHLEDMIKDVDQNNDGQIDYSEFAAMMRKGNAGGANAGGVTSTGGTGR"
3,binds,"OsPN29113 aa 1-92 (other, prey, AD fusion; also called O. sativa DNAJ Homologue) CKVSYIDAILGTTVKVPTVDGMVDLKIPSGTQPGTTLVMSKKGVPLLGKSNARGDQLVRVQVEIPKRLSSDERKLIEELANLNKAQTANSRR"
4,binds,"OsPN29116 aa 1-169 (other, prey, AD fusion; also called Novel Protein PN29116, Fragment) GRKPVAAQHYNKGDKDGTSTGSRCTSVAWVPEREGIFVVSHSDGNLYVYDKCKDGNTECTFPAIKDPAQLMISHAKSSKSNPIARWHVCQGSINAISFSPDGAYLATVGRDGYLRVFDFSKEQLIFGGKSYYGALLCCTWSSDGKYLLTGGEDDLVQVWSMDDRKIVAW"
5,binds,"OsPN29117 prey clone -7-151 (other, prey, AD fusion; clone includes a small portion (-7 to 0) of the 5' untranslated region; also called Novel Protein PN29117) MLVQRRDGDTGPAVRLRVSHGASFRDVAVPAHSTFGELKGVLTQATGVEPERQRLFFRGKEKSDNEFLHTAGVKDGAKLLLLEKPAPANVEQRAEPVIMDESMMKACEAVGRVRAEVDRLSAKVCDLEKSVFAGRKIEDKDFVVLTELLMM"
